Values of other authors in paper PMC8315802.
Where two headings read alike, the source gives them in different places. Values belong to the substance of their own block, whether it stands above or below them.

Key:
[1] = biological target: actin filament (Oryctolagus cuniculus) (UniProt P68135)
[2] = biological target: actin filament (Oryctolagus cuniculus) (UniProt P68135); remark: listed apart in the source
[3] = biological target: actin filament (Oryctolagus cuniculus) (UniProt P68135); remark: listed apart in the source

Kd [1]: 900 nM
Substance: Rng2 1-189 (from UniProt O14188)

Kd [2]: 1500 nM
Substance: utrophin CHD (from UniProt P46939)

Kd [3]: 4700 nM
Substance: α-actinin CHD (from UniProt P05094)
